Laboratory results: patent US20120172293A1 (Takeda / Millennium, published 2012)
Non-standard residues stand in square brackets, D forms with d. No end group written: not given here. *: point of attachment. 4‑guanidinomethylbenzoyl = N=C(N)NCc1ccc(C(=O)*)cc1; Phe(3-F) = N[C@@H](Cc1cccc(F)c1)C(=O)O; Phe(3-Me) = Cc1cccc(C[C@H](N)C(=O)O)c1; Phe(2-F) = N[C@@H](Cc1ccccc1F)C(=O)O; Phe(2-Me) = Cc1ccccc1C[C@H](N)C(=O)O; Cha = N[C@@H](CC1CCCCC1)C(=O)O; 4Amb = NCc1ccc(C(=O)O)cc1; Aib = CC(C)(N)C(=O)O

T1: human Y2 receptor (human, UniProt P49146 1-381)
T1 sequence (looked up): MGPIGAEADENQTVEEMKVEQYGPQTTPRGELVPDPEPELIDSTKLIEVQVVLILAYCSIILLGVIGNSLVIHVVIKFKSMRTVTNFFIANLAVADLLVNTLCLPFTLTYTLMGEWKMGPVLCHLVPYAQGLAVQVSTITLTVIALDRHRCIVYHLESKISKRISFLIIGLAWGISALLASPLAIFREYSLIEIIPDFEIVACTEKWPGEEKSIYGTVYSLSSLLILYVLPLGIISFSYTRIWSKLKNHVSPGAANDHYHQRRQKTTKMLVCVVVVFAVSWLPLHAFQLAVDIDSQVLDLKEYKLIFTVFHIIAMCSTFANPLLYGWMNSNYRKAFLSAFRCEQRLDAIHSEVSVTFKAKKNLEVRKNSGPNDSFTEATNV


Experiments:
human Y2 receptor [1] = target: T1, human Y2 receptor; assay: cell-based or functional assay
human Y2 receptor [2] = target: T1, human Y2 receptor; assay: RBA: [125I]-PYY displacement, hY2R/CHO membranes
Procedure, shortened: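 Bound radioligand was collected by filtration on PEI-treated GF/C filters, washed with Tris/MgCl₂/NaCl/CHAPS buffer pH 7.4, and counted by scintillation; IC₅₀ values were calculated.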

Row | Binder | GBA EC50 Ratio (vs PYY(3-36)), [35S]GTPγS (human Y2 receptor [1]) [ratio] | IC50 Ratio (vs PYY(3-36)) (human Y2 receptor [2]) [ratio]
1 | {4‑guanidinomethylbenzoyl}-RAYINLITRQRY-NH2 (SMILES CC[C@H](C)[C@H](NC(=O)[C@H](Cc1ccc(O)cc1)NC(=O)[C@H](C)NC(=O)[C@H](CCCNC(=N)N)NC(=O)c1ccc(CNC(=N)N)cc1)C(=O)N[C@@H](CC(N)=O)C(=O)N[C@@H](CC(C)C)C(=O)N[C@H](C(=O)N[C@H](C(=O)N[C@@H](CCCNC(=N)N)C(=O)N[C@@H](CCC(N)=O)C(=O)N[C@@H](CCCNC(=N)N)C(=O)N[C@@H](Cc1ccc(O)cc1)C(N)=O)[C@@H](C)O)[C@@H](C)CC, also called compound No. 4) [4-Guanidinomethylbenzoyl-[Ala26, Ile28,31]-PYY(25-36)] | 1.1 | 2.4
2 | [4Amb]RAQINLITRQRY-NH2 (N-terminus assumed; SMILES CC[C@H](C)[C@H](NC(=O)[C@H](CCC(N)=O)NC(=O)[C@H](C)NC(=O)[C@H](CCCNC(=N)N)NC(=O)c1ccc(CN)cc1)C(=O)N[C@@H](CC(N)=O)C(=O)N[C@@H](CC(C)C)C(=O)N[C@H](C(=O)N[C@H](C(=O)N[C@@H](CCCNC(=N)N)C(=O)N[C@@H](CCC(N)=O)C(=O)N[C@@H](CCCNC(=N)N)C(=O)N[C@@H](Cc1ccc(O)cc1)C(N)=O)[C@@H](C)O)[C@@H](C)CC, also called compound No. 30) [4-Aminomethylbenzoyl-[Ala26, Gln27, Ile28,31]-PYY(25-36)] | 14 | 25
3 | [4Amb]RARINLITRQRY-NH2 (N-terminus assumed; SMILES CC[C@H](C)[C@H](NC(=O)[C@H](CCCNC(=N)N)NC(=O)[C@H](C)NC(=O)[C@H](CCCNC(=N)N)NC(=O)c1ccc(CN)cc1)C(=O)N[C@@H](CC(N)=O)C(=O)N[C@@H](CC(C)C)C(=O)N[C@H](C(=O)N[C@H](C(=O)N[C@@H](CCCNC(=N)N)C(=O)N[C@@H](CCC(N)=O)C(=O)N[C@@H](CCCNC(=N)N)C(=O)N[C@@H](Cc1ccc(O)cc1)C(N)=O)[C@@H](C)O)[C@@H](C)CC, also called compound No. 29) [4-Aminomethylbenzoyl-[Ala26, Arg27, Ile28,31]-PYY(25-36)] | 4.3 | 6.8
4 | [4Amb]RAYINAITRQRY-NH2 (N-terminus assumed; SMILES CC[C@H](C)[C@H](NC(=O)[C@H](C)NC(=O)[C@H](CC(N)=O)NC(=O)[C@@H](NC(=O)[C@H](Cc1ccc(O)cc1)NC(=O)[C@H](C)NC(=O)[C@H](CCCNC(=N)N)NC(=O)c1ccc(CN)cc1)[C@@H](C)CC)C(=O)N[C@H](C(=O)N[C@@H](CCCNC(=N)N)C(=O)N[C@@H](CCC(N)=O)C(=O)N[C@@H](CCCNC(=N)N)C(=O)N[C@@H](Cc1ccc(O)cc1)C(N)=O)[C@@H](C)O, also called compound No. 32) [4-Aminomethylbenzoyl-[Ala26,30, Ile28,31]-PYY(25-36)] | 7.4 | 9.1
5 | [4Amb]RAYINFITRQRY-NH2 (N-terminus assumed; SMILES CC[C@H](C)[C@H](NC(=O)[C@H](Cc1ccc(O)cc1)NC(=O)[C@H](C)NC(=O)[C@H](CCCNC(=N)N)NC(=O)c1ccc(CN)cc1)C(=O)N[C@@H](CC(N)=O)C(=O)N[C@@H](Cc1ccccc1)C(=O)N[C@H](C(=O)N[C@H](C(=O)N[C@@H](CCCNC(=N)N)C(=O)N[C@@H](CCC(N)=O)C(=O)N[C@@H](CCCNC(=N)N)C(=O)N[C@@H](Cc1ccc(O)cc1)C(N)=O)[C@@H](C)O)[C@@H](C)CC, also called compound No. 54) [4-Aminomethylbenzoyl-[Ala26, Ile28,31, Phe30]-PYY(25-36)] | 3.4 | 5.7
6 | [4Amb]RAYINLATRQRY-NH2 (N-terminus assumed; SMILES CC[C@H](C)[C@H](NC(=O)[C@H](Cc1ccc(O)cc1)NC(=O)[C@H](C)NC(=O)[C@H](CCCNC(=N)N)NC(=O)c1ccc(CN)cc1)C(=O)N[C@@H](CC(N)=O)C(=O)N[C@@H](CC(C)C)C(=O)N[C@@H](C)C(=O)N[C@H](C(=O)N[C@@H](CCCNC(=N)N)C(=O)N[C@@H](CCC(N)=O)C(=O)N[C@@H](CCCNC(=N)N)C(=O)N[C@@H](Cc1ccc(O)cc1)C(N)=O)[C@@H](C)O, also called compound No. 33) [4-Aminomethylbenzoyl-[Ala26,31, Ile28]-PYY(25-36)] | 17 | 23
7 | [4Amb]RAYINLILRQRY-NH2 (N-terminus assumed; SMILES CC[C@H](C)[C@H](NC(=O)[C@H](Cc1ccc(O)cc1)NC(=O)[C@H](C)NC(=O)[C@H](CCCNC(=N)N)NC(=O)c1ccc(CN)cc1)C(=O)N[C@@H](CC(N)=O)C(=O)N[C@@H](CC(C)C)C(=O)N[C@H](C(=O)N[C@@H](CC(C)C)C(=O)N[C@@H](CCCNC(=N)N)C(=O)N[C@@H](CCC(N)=O)C(=O)N[C@@H](CCCNC(=N)N)C(=O)N[C@@H](Cc1ccc(O)cc1)C(N)=O)[C@@H](C)CC, also called compound No. 62) [4-Aminomethylbenzoyl-[Ala26, Ile28,31, Leu32]-PYY(25-36)] | 15 | 18
8 | [4Amb]RAYINGITRQRY-NH2 (N-terminus assumed; SMILES CC[C@H](C)[C@H](NC(=O)CNC(=O)[C@H](CC(N)=O)NC(=O)[C@@H](NC(=O)[C@H](Cc1ccc(O)cc1)NC(=O)[C@H](C)NC(=O)[C@H](CCCNC(=N)N)NC(=O)c1ccc(CN)cc1)[C@@H](C)CC)C(=O)N[C@H](C(=O)N[C@@H](CCCNC(=N)N)C(=O)N[C@@H](CCC(N)=O)C(=O)N[C@@H](CCCNC(=N)N)C(=O)N[C@@H](Cc1ccc(O)cc1)C(N)=O)[C@@H](C)O, also called compound No. 45) [4-Aminomethylbenzoyl-[Ala26, Ile28,31, Gly30]-PYY(25-36)] | 12 | 21
9 | [4Amb]RAYANLITRQRY-NH2 (N-terminus assumed; SMILES CC[C@H](C)[C@H](NC(=O)[C@H](CC(C)C)NC(=O)[C@H](CC(N)=O)NC(=O)[C@H](C)NC(=O)[C@H](Cc1ccc(O)cc1)NC(=O)[C@H](C)NC(=O)[C@H](CCCNC(=N)N)NC(=O)c1ccc(CN)cc1)C(=O)N[C@H](C(=O)N[C@@H](CCCNC(=N)N)C(=O)N[C@@H](CCC(N)=O)C(=O)N[C@@H](CCCNC(=N)N)C(=O)N[C@@H](Cc1ccc(O)cc1)C(N)=O)[C@@H](C)O, also called compound No. 31) [4-Aminomethylbenzoyl-[Ala26,28, Ile31]-PYY(25-36)] | 29 | 42
10 | Ac-S[dP]RH[Cha][Cha]NL[Aib]TRQR[Phe(3-F)]-NH2 (SMILES CC(=O)N[C@@H](CO)C(=O)N1CCC[C@@H]1C(=O)N[C@@H](CCCNC(=N)N)C(=O)N[C@@H](Cc1c[nH]cn1)C(=O)N[C@@H](CC1CCCCC1)C(=O)N[C@@H](CC1CCCCC1)C(=O)N[C@@H](CC(N)=O)C(=O)N[C@@H](CC(C)C)C(=O)NC(C)(C)C(=O)N[C@H](C(=O)N[C@@H](CCCNC(=N)N)C(=O)N[C@@H](CCC(N)=O)C(=O)N[C@@H](CCCNC(=N)N)C(=O)N[C@@H](Cc1cccc(F)c1)C(N)=O)[C@@H](C)O, also called compound No. 195) [Ac-[D-Pro24, Cha27,28, Aib31, Phe(3F)36]-PYY(23-36)] | 1.5 | 2.1
11 | Ac-S[dP]RH[Cha][Cha]NL[Aib]TRQR[Phe(2-F)]-NH2 (SMILES CC(=O)N[C@@H](CO)C(=O)N1CCC[C@@H]1C(=O)N[C@@H](CCCNC(=N)N)C(=O)N[C@@H](Cc1c[nH]cn1)C(=O)N[C@@H](CC1CCCCC1)C(=O)N[C@@H](CC1CCCCC1)C(=O)N[C@@H](CC(N)=O)C(=O)N[C@@H](CC(C)C)C(=O)NC(C)(C)C(=O)N[C@H](C(=O)N[C@@H](CCCNC(=N)N)C(=O)N[C@@H](CCC(N)=O)C(=O)N[C@@H](CCCNC(=N)N)C(=O)N[C@@H](Cc1ccccc1F)C(N)=O)[C@@H](C)O, also called compound No. 194) [Ac-[D-Pro24, Cha27,28, Aib31, Phe(2F)36]-PYY(23-36)] | 1.3 | 1.4
12 | Ac-S[dP]RH[Cha][Cha]NL[Aib]TRQR[Phe(2-Me)]-NH2 (SMILES CC(=O)N[C@@H](CO)C(=O)N1CCC[C@@H]1C(=O)N[C@@H](CCCNC(=N)N)C(=O)N[C@@H](Cc1c[nH]cn1)C(=O)N[C@@H](CC1CCCCC1)C(=O)N[C@@H](CC1CCCCC1)C(=O)N[C@@H](CC(N)=O)C(=O)N[C@@H](CC(C)C)C(=O)NC(C)(C)C(=O)N[C@H](C(=O)N[C@@H](CCCNC(=N)N)C(=O)N[C@@H](CCC(N)=O)C(=O)N[C@@H](CCCNC(=N)N)C(=O)N[C@@H](Cc1ccccc1C)C(N)=O)[C@@H](C)O, also called compound No. 196) [Ac-[D-Pro24, Cha27,28, Aib31, Phe(2Me)36]-PYY(23-36)] | 1.6 | 1.6
13 | Ac-S[dP]RH[Cha][Cha]NL[Aib]TRQR[Phe(3-Me)]-NH2 (SMILES CC(=O)N[C@@H](CO)C(=O)N1CCC[C@@H]1C(=O)N[C@@H](CCCNC(=N)N)C(=O)N[C@@H](Cc1c[nH]cn1)C(=O)N[C@@H](CC1CCCCC1)C(=O)N[C@@H](CC1CCCCC1)C(=O)N[C@@H](CC(N)=O)C(=O)N[C@@H](CC(C)C)C(=O)NC(C)(C)C(=O)N[C@H](C(=O)N[C@@H](CCCNC(=N)N)C(=O)N[C@@H](CCC(N)=O)C(=O)N[C@@H](CCCNC(=N)N)C(=O)N[C@@H](Cc1cccc(C)c1)C(N)=O)[C@@H](C)O, also called compound No. 197) [Ac-[D-Pro24, Cha27,28, Aib31, Phe(3Me)36]-PYY(23-36)] | 1.9 | 1.3
